Consider 2 molecules from PMC4973471 (Nature structural & molecular biology, 2016).

Data set [1] deals with the molecule itself. Description: crystal structure.
The target of data set [2] is HSF2 DBD (Homo sapiens, UniProt Q03933 8-115). Description: X-ray crystallography.

B1: human HSF2 DNA-binding domain (amino acids 8–115) (domain or fragment, UniProt Q03933 8-115, looked up)
chain: PAFLSKLWTLVEETHTNEFITWSQNGQSFLVLDEQRFAKEILPKYFKHNNMASFVRQLNMYGFRKVVHIDSGIVKQERDGPVEFQHPYFKQGQDDLLENIKRKVSSSK
In the case of B1, the binding result in data set [1] is reported as “binds”.

B2: 2-site HSE (dsDNA)
DNA 1: GGTTCTAGAACC
DNA 2: GGTTCTAGAACC
As to B2, in data set [2], the binding result is recorded as “binds”.
